# Tested on: Phloem protein 2 (PP2), 26 kDa major variant (cucumber)
# Test: northwestern
# Conditions: Northwestern: 10 mM Tris-HCl pH 7.5, 1 mM EDTA, 100 mM NaCl, 0.02% Ficoll 400, 0.02% PVP-40, 1% BSA, 5 pmol probe, 50 ug/ml yeast tRNA, renaturation 25 C. …
Substance,binding signal (fold vs PEMV2),binding signal (reference for fold values)
CY1 D-RNA,10,
CY1 full-length RNA,7.5,
PEMV2 RNA,,1

# Source: paper PMC11081511
